The source of these data is patent US20220220216A1 (Kyowa Kirin, published 2022).

Assay [1] has as its target T1, human CD40 on cells (human, UniProt P25942 21-277).
T1 construct: Endogenous CD40 of Ramos cells (and of monocyte-derived dendritic cells); also called CD40 on Ramos cells; CD40 on human induced dendritic cells
In words: FCM on Ramos cells (CD40-positive, GPC3-negative), APC anti-human IgG Fc, MFI [A]. Here is the method:
(§1) Ramos cells were suspended in SB at a cell density of 1×10⁶ cells/mL, and the suspension was dispensed in a 96-well round bottom plate (manufactured by Falcon, Inc.) at 100 μL/well.
(§2) After further centrifugation (2000 rpm, 4° C., 2 minutes), the supernatant was removed, and the pellet was washed 3 times with 200 μL/well of SB, and then, APC-conjugated AffiniPure F(ab′)₂ Goat Anti-Human IgG, Fcγ (manufactured by Jackson ImmunoResearch Laboratories, Inc.) diluted 100 times was added thereto at 100 μL/well, and the plate was incubated at ice temperature for 30 minutes. After washing twice with SB, the cells were suspended in 100 μL/well of SB, and the fluorescence intensity of each cell was measured using a flow cytometer FACSCANTO II (manufactured by Becton, Dickinson and Company).

The target in assay [2] is T2, Human GPC3-His (manufactured by ACROBiosystems, Inc.) (human, UniProt P51654 25-559).
T2 construct: Bought protein; also called hGPC3-His; not shown: His tag
Nature of the assay: SPR (Biacore T100), antibody captured on anti-human IgG, antigen as analyte, single cycle kinetics. On the procedure: (§3) An anti-human IgG antibody was immobilized on a CMS sensor chip (manufactured by GE Healthcare, Inc.) using Human Antibody Capture Kit (manufactured by GE Healthcare, Inc.) according to the package insert. A test antibody prepared at 2 μg/mL was added to a flow cell for 10 seconds at a flow rate of 10 μL/min.
(§4) The measurement was performed by a single cycle kinetics method.

For assay [3], the target named is T3, human GPC3 on a cell membrane (human, UniProt P51654 25-554).
T3 construct: HepG2 and HuH-7 carry the endogenous protein; also called hGPC3; GPC3 on HepG2 cells, HuH-7 cells, MC-38/hGPC3 cells and Expi293F cells transiently expressing human GPC3
Nature of the assay: FCM on HepG2 cells (GPC3-positive), APC anti-human IgG Fc, MFI [B].

Assay [4] concerns the target T1, human CD40 on cells. In words: FCM on Ramos cells (CD40-positive, GPC3-negative). Here is the method:
as §1, §2

The target of assay [5] is T1, human CD40 on cells. Nature of the assay: FCM on Ramos cells (CD40-positive, GPC3-negative), antibody at 0.01-10 µg/mL, APC anti-human IgG Fc, MFI [A]. On the procedure:
as §1, §2

For the next assay, the target named is T4, human CD40-GST protein (human, UniProt P25942 21-193).
T4 construct: not shown: GST region of the N5 vector
In words: phage ELISA, CD40-GST immobilised on the plate. Here is the method:
(§5) In the ELISA, MAXISORP (manufactured by NUNC, Inc.) in which the human or monkey CD40-GST in Example 1 was immobilized on each well and a portion to which the human or monkey CD40-GST is not bound was blocked using SuperBlock Blockig Buffer (manufactured by Thermo Fisher, Inc.) was used. To each well, each phage clone was added and reacted at room temperature for 30 minutes, and thereafter, each well was washed 3 times with PBS-T.
(§6) Subsequently, an anti-M13 antibody (manufactured by GE Healthcare, Inc.) labeled with horseradish peroxidase was diluted 5000 times with PBS-T containing 10% Block Ace (manufactured by Dainippon Pharmaceutical Co., Ltd.), and the resultant was added in an amount of 50 μL to each well, and incubated at room temperature for 30 minutes. After the microplate was washed four times with PBS-T, a TMB chromogenic substrate solution (manufactured by DAKO, Inc.) was added in an amount of 50 μL to each well and incubated at room temperature for 10 minutes.
(In general: In an ELISA, binding on a coated surface is turned into a signal by an enzyme label.)

The target in the next assay is T5, monkey CD40-GST protein (monkey, UniProt P25942 21-193 (human entry)).
T5 construct: it may begin with a signal peptide; not shown: GST region of the N5 vector
T5 chain: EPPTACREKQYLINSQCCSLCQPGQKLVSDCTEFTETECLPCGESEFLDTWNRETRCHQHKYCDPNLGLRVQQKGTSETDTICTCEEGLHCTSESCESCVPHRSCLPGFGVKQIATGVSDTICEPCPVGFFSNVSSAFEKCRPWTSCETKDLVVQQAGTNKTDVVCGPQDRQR
In words: phage ELISA, CD40-GST immobilised on the plate. On the procedure: as §5, §6

The target of assay [6] is T1, human CD40 on cells. In words: FCM on Ramos cells (CD40-positive), MFI [B]. Here is the method: The reactivity of each of various bispecific antibodies produced in Example 16 with HepG2 cells and Ramos cells was evaluated by FCM in the same manner as in Example 7.
Assay [7] addresses T2, Human GPC3-His (manufactured by …). Nature of the assay: SPR (Biacore T100), antibody captured on anti-human IgG, antigen as analyte, single cycle kinetics. On the procedure: as §3, §4
(§7) The obtained sensorgram was analyzed using Bia Evaluation Software (manufactured by GE Healthcare, Inc.), and the kinetic constant of each antibody was calculated.
This is another data set of the same source. (In general: Surface plasmon resonance follows binding to a sensor surface in real time, without labels.)

Assay [8] has the same target. In words: SPR (Biacore T100), antibody captured on anti-human IgG, antigen as analyte, single cycle kinetics; second run (Table 9). Here is the method: as §3, §4
The target is the same in assay [9]. In words: SPR (Biacore T100), antibody captured on anti-human IgG, antigen as analyte, single cycle kinetics; first run (Table 8). On the procedure: as §3, §4, §7

Changes are numbered by the printed parent chain. Numbers in names are those of the source. Read-outs that look alike come from different tables or passages of the source.

T2 sequence (P51654 25-559 limits assumed): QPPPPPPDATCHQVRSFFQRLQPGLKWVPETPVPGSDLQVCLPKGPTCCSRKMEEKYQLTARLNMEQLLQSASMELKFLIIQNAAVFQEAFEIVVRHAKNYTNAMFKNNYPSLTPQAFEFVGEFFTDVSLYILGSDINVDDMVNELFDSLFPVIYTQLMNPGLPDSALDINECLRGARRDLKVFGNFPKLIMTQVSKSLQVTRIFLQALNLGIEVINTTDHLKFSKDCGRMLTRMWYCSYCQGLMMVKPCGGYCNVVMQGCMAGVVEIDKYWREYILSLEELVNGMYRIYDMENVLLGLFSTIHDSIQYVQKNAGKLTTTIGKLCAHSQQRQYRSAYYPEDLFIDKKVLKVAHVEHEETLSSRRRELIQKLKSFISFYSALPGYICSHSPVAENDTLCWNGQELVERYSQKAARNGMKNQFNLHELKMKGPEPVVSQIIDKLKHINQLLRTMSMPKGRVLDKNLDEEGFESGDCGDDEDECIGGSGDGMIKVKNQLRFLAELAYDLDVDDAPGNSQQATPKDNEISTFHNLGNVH
T3 sequence (P51654 25-554 limits assumed): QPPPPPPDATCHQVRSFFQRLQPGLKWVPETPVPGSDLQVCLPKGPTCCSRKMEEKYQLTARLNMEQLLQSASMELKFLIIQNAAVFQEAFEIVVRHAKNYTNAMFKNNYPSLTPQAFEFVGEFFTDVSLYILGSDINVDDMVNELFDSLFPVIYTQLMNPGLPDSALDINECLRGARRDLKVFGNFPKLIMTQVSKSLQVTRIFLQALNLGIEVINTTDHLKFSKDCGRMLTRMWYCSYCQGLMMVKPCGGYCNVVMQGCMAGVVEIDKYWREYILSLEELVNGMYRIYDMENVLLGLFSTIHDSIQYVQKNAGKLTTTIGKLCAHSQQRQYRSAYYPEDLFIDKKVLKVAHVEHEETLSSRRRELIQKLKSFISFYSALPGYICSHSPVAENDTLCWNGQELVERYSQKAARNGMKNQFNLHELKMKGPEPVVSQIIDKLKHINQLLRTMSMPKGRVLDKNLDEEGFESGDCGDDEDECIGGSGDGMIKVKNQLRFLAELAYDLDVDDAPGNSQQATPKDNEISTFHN

B1: anti-GPC3 antibody GpA6062 (antibody, human IgG4 S228P, kappa, V domains shown)
VH: EVQLVETGGGLVQPGGSLRLSCAASGFSFSSYAMNWVRQAPGKGLEWVSYITSGGSSRYYADSVKGRFTISRDNAKNSLYLQMNSLRDEDTAVYYCARGTYYYGSGNYFLFDYWGQGTTVTVSS
VL: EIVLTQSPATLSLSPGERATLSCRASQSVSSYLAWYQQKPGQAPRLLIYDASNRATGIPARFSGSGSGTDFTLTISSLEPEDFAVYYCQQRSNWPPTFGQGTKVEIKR
notes: IgG4PE R409K; light chain with L6 as VL
As a reminder, the Kd is the concentration at which binding is half-saturated. One may read the koff as a measure of how fast the partners let go of each other. The kon is the second-order rate constant of association. B1: the binding result with human CD40 on cells [1] is “no binding (tested: 10 µg/mL)”. In assay [2], this molecule returned a Kd of 6.33 nM, a koff of 0.00175 s⁻¹ and a kon of 276000 M⁻¹ s⁻¹.

B2: anti-GPC3 antibody GpA6005 (antibody, human IgG4 S228P, kappa, V domains shown)
VH: B1 VH with E1Q, T7S, S28T, A33S, T52K, G54S, R58T, Y80N, Y108F, T119L
VL: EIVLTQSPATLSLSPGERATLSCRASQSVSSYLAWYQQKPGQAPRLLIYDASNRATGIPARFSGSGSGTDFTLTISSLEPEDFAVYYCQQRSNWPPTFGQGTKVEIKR
notes: as for B1
Turning to B2, in the assay with human CD40 on cells [1], the binding result is on record as “no binding (tested: 10 µg/mL)”. In [2], this molecule displayed a Kd of 0.762 nM, a koff of 0.000347 s⁻¹ and a kon of 456000 M⁻¹ s⁻¹.

B3: anti-GPC3 antibody GpA6014 (antibody, human IgG4 S228P, kappa, V domains shown)
VH: B1 VH with E1Q, V2M, E6Q, T7S, Y113H, T119M
VL: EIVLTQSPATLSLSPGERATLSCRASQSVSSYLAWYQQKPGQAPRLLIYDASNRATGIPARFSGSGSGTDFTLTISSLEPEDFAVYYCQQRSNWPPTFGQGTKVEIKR
notes: as for B1
In the case of B3, the binding result with human CD40 on cells [1] was “no binding (tested: 10 µg/mL)”. Further, in [2], the Kd worked out at 6.35 nM, the koff is 0.00189 s⁻¹ and the kon came out at 297000 M⁻¹ s⁻¹.

B4: anti-CD40 monoclonal antibody 21.4.1 (CP-870,893) (antibody, V domains shown)
VH: not shown
VL: DIQMTQSPSSVSASVGDRVTITCRASQGIYSWLAWYQQKPGKAPNLLIYTASTLQSGVPSRFSGSGSGTDFTLTISSLQPEDFATYYCQQANIFPLTFGGGTKVEIK
notes: Constant region of human IgG2 (N5KG2 vector); positive control agonistic anti-CD40 antibody
Take B4: the binding result in assay [3] is on record as “no binding (tested: 10 µg/mL)”.

B5: anti-GPC3 antibody GPngs18 (antibody, human IgG4 S228P, kappa, V domains shown)
VH: EVQLVESGGGLVQPGGSLRLSCAASGFTFSSYSMNWVRQAPGKGLEWVSYIRSDSRTIKYADSVKGRFTISRDNAKNSLFLQMNSLRDEDTAVYYCARWEWELDAFDIWGQGTMVTVSS
VL: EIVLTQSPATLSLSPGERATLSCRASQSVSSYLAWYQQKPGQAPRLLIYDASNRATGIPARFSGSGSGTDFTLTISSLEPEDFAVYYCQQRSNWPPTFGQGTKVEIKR
notes: as for B1
In assay [2], B5 registered a Kd of 0.39 nM, a koff of 0.000764 s⁻¹ and a kon of 1.96e+06 M⁻¹ s⁻¹. In the assay with human CD40 on cells [4], the binding result is given as “no binding (tested: 10 µg/mL)”.

B6: anti-CD40 monoclonal antibody R1090S55A (antibody, V domains shown)
VH: EVQLVQSGAEVKKPGESLKISCKGSGYSFIIYWIGWVRQMPGKGLEWMGIIYPNDADTRYSPSFQGQVTISADKSISTAYLQWSSLKASDTAMYYCVRLGTRDWFDPWGQGTLVTVSS
VL: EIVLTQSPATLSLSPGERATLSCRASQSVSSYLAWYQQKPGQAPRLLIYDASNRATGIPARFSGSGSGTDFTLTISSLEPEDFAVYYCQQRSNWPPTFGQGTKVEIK
Turning to B6, the binding result in assay [3] is reported as “no binding (tested: 10 µg/mL)”; with human CD40 on cells [5] it was “binds”.

B7: R1090S55A monoclonal phage clone (scFv displayed on M13 phage) (scFv, V domains shown)
VH: B6 VH
VL: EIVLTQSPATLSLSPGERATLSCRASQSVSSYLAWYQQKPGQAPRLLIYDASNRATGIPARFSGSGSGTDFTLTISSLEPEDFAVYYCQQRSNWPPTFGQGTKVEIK
notes: Form in the screening ELISA: scFv on phage (phagemid pCANTAB 5E); also called R1090S55A phage clone
With B7, the binding result with human CD40-GST protein and in the assay with monkey CD40-GST protein was “binds” each time.

B8: conventional anti-GPC3 antibody YP7 (IgG4PE R409K) (antibody, V domains shown)
VH: EVQLVETGGGMVQPEGSLKLSCAASGFTFNKNAMNWVRQAPGKGLEWVARIRNKTNNYATYYADSVKARFTISRDDSQSMLYLQMNNLKIEDTAMYYCVAGNSFAYWGQGTLVTVSA
VL: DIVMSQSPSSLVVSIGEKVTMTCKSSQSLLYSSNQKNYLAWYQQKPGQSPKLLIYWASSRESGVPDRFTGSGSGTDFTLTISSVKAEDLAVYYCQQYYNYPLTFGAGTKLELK
notes: Variable regions from WO 2013/181543; not shown: constant region of 'a κ chain'
Regarding B8, in the assay with human CD40 on cells [6], the binding result is reported as “no binding (tested: 10 µg/mL)”. In assay [7], binding was characterised by a dissociation constant (Kd) of 0.861 nM, the koff is 0.000186 s⁻¹ and the kon is 217000 M⁻¹ s⁻¹.

B9: conventional anti-GPC3 antibody GC33 (IgG4PE R409K) (antibody, V domains shown)
VH: QVQLQQSGAELVRPGASVKLSCKASGYTFTDYEMHWVKQTPVHGLKWIGALDPKTGDTAYSQKFKGKATLTADKSSSTAYMELRSLTSEDSAVYYCTRFYSYTYWGQGTLVTVSA
VL: DVVMTQTPLSLPVSLGDQASISCRSSQSLVHSNGNTYLHWYLQKPGQSPKLLIYKVSNRFSGVPDRFSGSGSGTDFTLKISRVEAEDLGVYFCSQNTHVPPTFGSGTKLEIK
notes: Variable regions from WO 2006/006693; not shown: constant region of 'a κ chain'
With B9, in the assay with human CD40 on cells [6], the binding result is on record as “no binding (tested: 10 µg/mL)”. In assay [2], this molecule yielded a Kd of 1.46 nM, a koff of 0.000299 s⁻¹ and a kon of 205000 M⁻¹ s⁻¹. In assay [7], the Kd was found to be 2.6 nM, the koff was 0.000378 s⁻¹ and the kon was determined as 145000 M⁻¹ s⁻¹.

B10: anti-GPC3 antibody GPngs62 (antibody, human IgG4 S228P, kappa, V domains shown)
VH: EVQLVESGGGLVQPGGSLRLSCAASGFTFSSYARSWVRQAPGKGLEWVSAISGGGGRTYYADSVKGRFTISRDNSQNTLYLQMNSLRAEDTAVYYCAKNYYGSGSASYWYFDLWGRGTLVTVSS
VL: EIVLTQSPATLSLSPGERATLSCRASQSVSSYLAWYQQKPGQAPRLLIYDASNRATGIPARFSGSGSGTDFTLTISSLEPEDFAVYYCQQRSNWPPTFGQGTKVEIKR
notes: as for B1
In [2], B10 had a Kd of 5.36 nM, a koff of 0.031 s⁻¹ and a kon of 5.74e+06 M⁻¹ s⁻¹. For the same molecule, the binding result with human CD40 on cells [4] is recorded as “no binding (tested: 10 µg/mL)”.

B11: conventional anti-GPC3 antibody HN3 (IgG4PE R409K) (antibody, V domains shown)
VH: QVQLVQSGGGLVQPGGSLRLSCAASYFDFDSYEMSWVRQAPGKGLEWIGSIYHSGSTYYNPSLKSRVTISRDNSKNTLYLQMNTLRAEDTATYYCARVNMDRFDYWGQGTLVTVSS
notes: Variable region from WO 2012/145469
As for B11, the kon in assay [8] and in assay [9] was over 1e+07 M⁻¹ s⁻¹ throughout. Moreover, the binding result with human CD40 on cells [6] is listed as “no binding (tested: 10 µg/mL)”. Moreover, the Kd was determined as 24.4 nM in assay [2] and 13.2 nM in assay [7].
